Laboratory results as given in patent publication US5888732.

Legend:
[1] = tested on: Lambda integrase (Int) + IHF; test: cleavage_in_vitro; conditions: agarose gel; 50 mM Tris pH 7.8, 70 mM KCl, 5 mM spermidine, 25 C 45 min
[2] = target: Lambda integrase (Int) + excisionase (Xis) + IHF (UniProt P03700+P03699+P0A6X7+P0A6Y1); test: cell_activity
[3] = target: Cre recombinase (bacteriophage P1) (UniProt P06956); test: cell_activity; conditions: 140 without Cre
UniProt P06956, sequence (P06956 whole entry): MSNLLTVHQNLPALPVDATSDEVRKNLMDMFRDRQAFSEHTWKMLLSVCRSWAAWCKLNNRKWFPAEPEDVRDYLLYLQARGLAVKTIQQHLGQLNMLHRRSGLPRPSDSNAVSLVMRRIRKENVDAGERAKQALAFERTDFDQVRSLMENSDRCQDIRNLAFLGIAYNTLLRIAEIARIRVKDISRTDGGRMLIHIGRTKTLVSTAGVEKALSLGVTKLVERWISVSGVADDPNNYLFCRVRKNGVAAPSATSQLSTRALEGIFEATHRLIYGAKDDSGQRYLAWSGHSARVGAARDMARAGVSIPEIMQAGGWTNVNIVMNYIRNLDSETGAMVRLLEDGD

UniProt P03700, sequence (P03700 whole entry, chain 1 of 4): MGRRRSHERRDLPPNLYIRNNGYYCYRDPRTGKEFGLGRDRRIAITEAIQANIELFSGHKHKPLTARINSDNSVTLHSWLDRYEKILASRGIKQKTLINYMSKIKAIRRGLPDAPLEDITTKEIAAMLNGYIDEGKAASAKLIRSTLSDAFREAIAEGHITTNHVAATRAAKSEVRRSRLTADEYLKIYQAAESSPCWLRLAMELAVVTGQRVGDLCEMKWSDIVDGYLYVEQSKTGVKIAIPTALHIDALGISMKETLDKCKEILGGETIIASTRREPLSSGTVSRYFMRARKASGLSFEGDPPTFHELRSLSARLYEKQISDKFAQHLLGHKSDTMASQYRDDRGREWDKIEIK
UniProt P03700, sequence (P03699 whole entry, chain 2 of 4): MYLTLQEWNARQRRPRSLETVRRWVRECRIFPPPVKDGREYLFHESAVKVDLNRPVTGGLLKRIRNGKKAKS
UniProt P03700, sequence (P0A6X7 2-99, chain 3 of 4): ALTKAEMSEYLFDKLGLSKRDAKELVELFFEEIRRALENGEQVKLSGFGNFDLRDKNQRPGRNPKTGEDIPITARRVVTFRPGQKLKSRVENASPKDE
UniProt P03700, sequence (P0A6Y1 whole entry, chain 4 of 4): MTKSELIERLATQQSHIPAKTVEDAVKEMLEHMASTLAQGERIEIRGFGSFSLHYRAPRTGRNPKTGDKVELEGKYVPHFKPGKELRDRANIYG

Q: Which activity (% of total DNA converted to cointegrate) [1] does the source give for “attB wild type (pEZC705) ; attP wild type (pEZC726)” here?
A: The activity (% of total DNA converted to cointegrate) was 5.

Q: For attR1 (pEZC1305) ; attLwt (pEZC1313), which activity (kanamycin resistant colonies) ([2]; with Cre/loxP, background 1) is on record?
A: The activity (kanamycin resistant colonies) was 4.

Q: With attR2 (pEZC1309) ; attLwt (pEZC1313) as the substance, how does the activity (kanamycin resistant colonies) ([2]; with Cre/loxP, background 9) read?
A: The activity (kanamycin resistant colonies) was 0.

Q: How did the activity (kanamycin resistant colonies) ([2]; with Cre/loxP, background 1) turn out when “attRwt (lacking P1 and H1; pEZC1301) ; attL1 (pEZC1317)” was run?
A: Its activity (kanamycin resistant colonies) is 47.

Q: For “attRwt (lacking P1 and H1; pEZC1301) ; attL2 (pEZC1321)”, which activity (kanamycin resistant colonies) ([2]; with Cre/loxP, background 1) is on record?
A: The activity (kanamycin resistant colonies) was 0.

Q: How did the activity (kanamycin resistant colonies) ([2]; in vitro recombination with Cre on loxP as second site, background 1) turn out when “attRwt (lacking P1 and H1; pEZC1301) ; attLwt (pEZC1313)” was run?
A: Its activity (kanamycin resistant colonies) is 147.

Q: Which activity (kanamycin resistant colonies) ([3]; same reaction as loxP, both sites required for product) does the source give for loxP 511 here?
A: The activity (kanamycin resistant colonies) was 760.

Q: For loxP wild type, which activity (kanamycin resistant colonies) ([3]; pEZC602 x pEZC629 via loxP and loxP 511, 37 C, 33 mM NaCl) is on record?
A: Its activity (kanamycin resistant colonies) is 760.
